Laboratory results taken from patent publication US20260085129A1 (ECO ANIMAL HEALTH, published 2026).

Legend:
Assay in all cases: P.E. binding ELISA, antigen coated at 1 ug/ml, anti-c-Myc detection
pCD163-SRCR1-9-huFc = target: T1, pCD163-SRCR1-9-huFc (porcine, UniProt Q2VL90 51-1028)
T1 construct: Limits 51-1028 are those the description gives for CD163-SRCR1-9; also called porcine CD163 SRCR1 to SRCR9 (no PST2) with human Fc; soluble CD163; not shown: human Fc (huFc)
T1 sequence: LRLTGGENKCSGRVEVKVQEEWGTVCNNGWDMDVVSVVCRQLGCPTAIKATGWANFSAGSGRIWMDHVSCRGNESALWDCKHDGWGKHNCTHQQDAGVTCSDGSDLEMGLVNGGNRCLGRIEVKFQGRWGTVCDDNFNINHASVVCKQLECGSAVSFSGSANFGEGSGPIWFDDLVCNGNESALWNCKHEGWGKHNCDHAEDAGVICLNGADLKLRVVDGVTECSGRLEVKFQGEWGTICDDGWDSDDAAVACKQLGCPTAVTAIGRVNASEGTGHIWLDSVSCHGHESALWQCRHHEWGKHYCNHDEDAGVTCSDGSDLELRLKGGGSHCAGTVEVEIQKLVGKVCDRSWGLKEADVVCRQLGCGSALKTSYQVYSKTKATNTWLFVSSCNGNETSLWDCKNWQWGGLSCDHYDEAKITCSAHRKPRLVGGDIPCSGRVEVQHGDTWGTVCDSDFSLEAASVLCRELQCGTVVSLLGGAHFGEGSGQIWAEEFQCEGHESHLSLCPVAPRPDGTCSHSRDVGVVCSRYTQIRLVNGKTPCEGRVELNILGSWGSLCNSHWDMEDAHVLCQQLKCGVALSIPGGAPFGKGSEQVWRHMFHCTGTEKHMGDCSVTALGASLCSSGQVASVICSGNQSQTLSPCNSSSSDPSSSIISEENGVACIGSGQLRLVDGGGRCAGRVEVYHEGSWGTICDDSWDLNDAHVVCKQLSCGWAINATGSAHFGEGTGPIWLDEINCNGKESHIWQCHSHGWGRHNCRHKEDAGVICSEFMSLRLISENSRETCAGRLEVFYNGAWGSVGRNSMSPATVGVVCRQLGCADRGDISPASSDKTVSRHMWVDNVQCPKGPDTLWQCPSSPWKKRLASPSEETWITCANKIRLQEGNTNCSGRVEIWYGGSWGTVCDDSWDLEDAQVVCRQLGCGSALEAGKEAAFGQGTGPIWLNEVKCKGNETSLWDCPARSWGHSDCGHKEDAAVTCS
Description: (§1) For P.E. binding ELISA, MaxiSorp™ high protein-binding capacity 96 well ELISA plates, were coated with 1 μg/ml of pCD163-SRCR-FL-PST2-His or huCD6-pPST2-His, or pCD163-SRCR1-9-huFc protein, diluted in PBS, overnight at 4° C. The next day, plates were washed 3× with PBS Tween 0.05% (pH 7.4) and blocked for 1 hour at room temperature with 250 μl/well of 4% Marvel/PBS. After blocking, plates were washed 3× with PBS Tween 0.05% (pH7.4) and incubated per well with 20 μl of P.E+80 μl in 1% Marvel/PBS (pH7.4), for 1 hour at room temperature (RT) with shaking. Plates were washed 3× with PBS Tween 0.05% (pH7.4) and incubated with 100 μl of anti-c-Myc antibody (Roche; Cat. nr. 11667203001) followed by secondary antibody DAM-HRP (JIR; Cat. nr. 715-035-150) in 1% Marvel/PBS (pH7.4), for 1 hour at RT with shaking. Plates were washed 3× with PBS Tween 0.05% (pH7.4) and the substrate solution (TMB solution) was added to the plates. Reaction was stopped with H2SO4 and plates read in the plate reader at 450 nm.

pCD163-SRCR-FL-PST2-His = target: T2, pCD163-SRCR-FL-PST2-His (porcine, UniProt Q2VL90 51-1044)
T2 construct: also called pCD163-1-PST2-His; pCD163-SRCR1-PST2; not shown: His tag
T2 sequence: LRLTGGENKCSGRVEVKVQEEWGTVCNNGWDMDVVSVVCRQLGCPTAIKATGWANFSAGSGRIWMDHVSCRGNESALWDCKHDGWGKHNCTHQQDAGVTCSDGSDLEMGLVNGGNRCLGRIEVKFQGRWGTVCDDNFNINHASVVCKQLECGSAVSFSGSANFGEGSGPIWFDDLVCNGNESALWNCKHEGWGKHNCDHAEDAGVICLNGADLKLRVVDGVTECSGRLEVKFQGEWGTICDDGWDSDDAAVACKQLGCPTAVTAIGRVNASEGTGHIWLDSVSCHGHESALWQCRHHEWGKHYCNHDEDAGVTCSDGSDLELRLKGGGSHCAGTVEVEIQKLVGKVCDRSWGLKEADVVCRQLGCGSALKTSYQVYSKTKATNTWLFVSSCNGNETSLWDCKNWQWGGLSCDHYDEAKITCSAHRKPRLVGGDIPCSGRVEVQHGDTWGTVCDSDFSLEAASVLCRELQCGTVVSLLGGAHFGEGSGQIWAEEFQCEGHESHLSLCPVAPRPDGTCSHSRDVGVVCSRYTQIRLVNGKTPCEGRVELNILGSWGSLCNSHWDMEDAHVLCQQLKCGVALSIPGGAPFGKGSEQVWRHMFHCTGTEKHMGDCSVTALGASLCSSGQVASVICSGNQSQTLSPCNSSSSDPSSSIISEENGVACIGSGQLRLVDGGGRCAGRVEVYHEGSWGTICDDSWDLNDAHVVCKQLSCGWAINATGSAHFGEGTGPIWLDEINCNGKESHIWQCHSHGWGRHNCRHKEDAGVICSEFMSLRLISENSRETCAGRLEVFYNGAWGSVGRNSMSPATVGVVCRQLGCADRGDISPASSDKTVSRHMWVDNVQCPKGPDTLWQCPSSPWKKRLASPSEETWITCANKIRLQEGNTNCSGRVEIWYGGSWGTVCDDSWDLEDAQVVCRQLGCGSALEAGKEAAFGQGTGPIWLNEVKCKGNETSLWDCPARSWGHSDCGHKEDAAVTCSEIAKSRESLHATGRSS
Description: as §1

huCD6-pPST2-His = target: T3, huCD6-pPST2-His (human, UniProt P30203 18-402)
T3 construct: composition read from the name; not shown: His tag
T3 sequence (P30203 whole entry): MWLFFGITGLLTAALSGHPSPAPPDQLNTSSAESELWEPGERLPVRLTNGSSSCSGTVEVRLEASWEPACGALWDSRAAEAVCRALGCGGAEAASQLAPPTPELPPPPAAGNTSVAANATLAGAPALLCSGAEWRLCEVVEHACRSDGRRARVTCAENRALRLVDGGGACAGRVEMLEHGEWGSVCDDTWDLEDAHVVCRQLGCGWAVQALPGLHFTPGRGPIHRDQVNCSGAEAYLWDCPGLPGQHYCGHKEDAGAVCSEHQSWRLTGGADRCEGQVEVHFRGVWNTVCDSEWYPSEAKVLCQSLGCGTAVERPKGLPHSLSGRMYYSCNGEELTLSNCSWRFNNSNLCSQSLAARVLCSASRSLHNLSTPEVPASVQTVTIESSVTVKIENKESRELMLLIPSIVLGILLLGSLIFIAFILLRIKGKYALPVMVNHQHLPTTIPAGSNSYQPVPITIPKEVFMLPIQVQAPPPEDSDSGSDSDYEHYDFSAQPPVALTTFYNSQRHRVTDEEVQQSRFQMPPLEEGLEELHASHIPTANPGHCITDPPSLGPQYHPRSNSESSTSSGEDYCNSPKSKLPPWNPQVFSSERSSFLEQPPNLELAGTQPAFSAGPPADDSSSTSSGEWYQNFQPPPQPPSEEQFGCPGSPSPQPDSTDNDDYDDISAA
Description: as §1

B1: Clone 39-H17B11 VHH antibody (VHH)
VHH: QVQLVESGGGLVQAGGSLRLSCAASGRTFSSYAMGWFRQTPGKDREFVARIGWTGGTTIYADSVKGRFTISRDNAKNTVYLQMNSLKPEDTAVYYCAADQAGWRTAGVRNTYEYDYWGQGTQVTVSS
notes: Llama single domain antibody; also called clone 17B11; not shown: tags: c-myc tag on the soluble VHH in periplasmic extracts; FLAG and His tags on the purified VHH
How did the “O.D. 450 nm” value (pCD163-SRCR1-9-huFc) turn out when B1 was run?
The value was 0.091 O.D. 450 nm.

What about the “O.D. 450 nm” value (pCD163-SRCR-FL-PST2-His) of the same binder?
Its value is 0.066 O.D. 450 nm.

What about the “O.D. 450 nm” value (huCD6-pPST2-His) of the same binder?
Its value is 0.052 O.D. 450 nm.
